The values that follow come from US20110002945A1, “Use of immunoglobulin heavy and light chains or fragments thereof to bind to aggregated amyloidogenic proteins” (published 2011).

The EC50 is the concentration needed to bring the measured effect to its halfway point.

Test [1] concerns the target dityrosine cross-linked Aβ preparation (CAPS) (Homo sapiens (Human), UniProt P05067, dityrosine cross-linked). The experiment in a line: EuLISA on plate-immobilized CAPS.
For the next test, the target named is fibrillar Aβ1-40 peptide (Homo sapiens (Human), UniProt P05067). Kind of test: EuLISA on plate-immobilized fibrils. The protocol: High binding activated microtiter plate wells were coated with 400 ng of fibrillar Aβ1-40 peptide, which was prepared by aggregation in 10 mM PBS of Aβ1-40 peptide, previously disaggregated by the trifluoro acetic acid/hexafluoroisopropanol procedure [Adekar et al., J. Biol. Chem. 285, 1066-1074 (2010)]. After blocking with 1% bovine serum albumin (BSA), F1 was serially diluted in 10 mM PBS/1% BSA and applied in 100 μl aliquots to coated wells. After incubation for 1 hr, wells were washed, and incubated with biotinylated goat anti-human IgG as a secondary antibody for 1 hr. Thereafter bound HC F1 was determined with a Eu³⁺-streptavidine conjugate followed by the release enhancement reagent (EuLISA) and measuring the amount of Eu³⁺ by time-resolved fluorescence (Victor 1420 multilabel counter) against a standard curve established with known concentrations of Eu³⁺.

The target in the next test is T1, IAPP fibrils (Homo sapiens (Human), UniProt P10997).
T1 peptide: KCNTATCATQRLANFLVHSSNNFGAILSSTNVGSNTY
The experiment in a line: EuLISA on plate-immobilized fibrils (column heads of c9 and c10 seem swapped).

B1: antibody heavy chain F1 (other)
heavy: AMDWTWSILFLVAAATGAHSQVQLVQSGAEVKKPGASVKVSCKASGYTFSSNGIIWVRQAPGQGLEWLGWISGYNGKTRYAQKVQGRVTITTDTSTSTAYMELRSLRSDDTAVYYCAREKTMVRGAISGYSDYWGQGTLVTVSSASTKGPSVFPLAPSSKSTSGGTAALGCLVKDYFPEPVTVSWNSGALTSGVHTFPAVLQSSGLYSLSSVVTVPSSSLGTQTYICNVNHKPSNTKVDKKRVEPKSCDKTHTCPPCPAPELLGGPSVFLFPPKPKDTLMISRTPEVTCVVVDVSHEDPEVKFNWYVDGVEVHNAKTKPREEQYNSTYRVVSVLTVLDHQDWLNGKEYKCKVSNKALPAPIEKTISKAKGQPREPQVYTLPPSREELMTKNQVSLTCLVKGFYPSDIAVEWESNGQPENNYKTTPPVLDSDGSFFLYSKLTVDKSRWQQGNVFSCSVMHEALHNHYTQKSLSLSPGK
As for B1, the figures for the EC50 (in test [1]; in the test with fibrillar Aβ1-40 peptide; with IAPP fibrils) were 28 nM, 23 nM and 40 nM, respectively.
